The numbers were not newly measured in publication PMC4845744, which cites them from elsewhere.

The target in the data set is MutLα (Homo sapiens) (UniProt P40692).
Sequence of MutLα (Homo sapiens) (P40692 2-756, chain 1 of 2): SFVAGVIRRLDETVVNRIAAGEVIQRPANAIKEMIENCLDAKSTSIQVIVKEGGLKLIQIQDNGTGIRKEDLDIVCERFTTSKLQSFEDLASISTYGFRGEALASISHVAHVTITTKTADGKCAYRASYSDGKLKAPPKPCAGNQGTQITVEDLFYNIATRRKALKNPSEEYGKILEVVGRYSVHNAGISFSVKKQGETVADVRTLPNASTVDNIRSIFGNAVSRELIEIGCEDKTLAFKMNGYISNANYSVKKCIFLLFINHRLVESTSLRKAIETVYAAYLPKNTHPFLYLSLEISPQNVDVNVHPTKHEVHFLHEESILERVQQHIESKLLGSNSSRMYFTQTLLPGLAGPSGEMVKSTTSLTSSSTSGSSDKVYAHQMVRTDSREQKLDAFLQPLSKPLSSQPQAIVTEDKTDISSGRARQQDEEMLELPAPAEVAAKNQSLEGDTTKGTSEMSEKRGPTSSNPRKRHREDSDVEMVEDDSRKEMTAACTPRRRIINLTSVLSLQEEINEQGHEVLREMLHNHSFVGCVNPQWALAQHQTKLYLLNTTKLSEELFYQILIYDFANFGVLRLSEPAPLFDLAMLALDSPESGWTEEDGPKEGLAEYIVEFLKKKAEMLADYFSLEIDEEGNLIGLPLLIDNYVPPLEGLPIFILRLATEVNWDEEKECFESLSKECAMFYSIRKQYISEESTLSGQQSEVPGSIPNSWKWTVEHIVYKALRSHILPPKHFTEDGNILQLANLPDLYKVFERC
Sequence of MutLα (Homo sapiens) (P54278 whole entry, chain 2 of 2, further chain): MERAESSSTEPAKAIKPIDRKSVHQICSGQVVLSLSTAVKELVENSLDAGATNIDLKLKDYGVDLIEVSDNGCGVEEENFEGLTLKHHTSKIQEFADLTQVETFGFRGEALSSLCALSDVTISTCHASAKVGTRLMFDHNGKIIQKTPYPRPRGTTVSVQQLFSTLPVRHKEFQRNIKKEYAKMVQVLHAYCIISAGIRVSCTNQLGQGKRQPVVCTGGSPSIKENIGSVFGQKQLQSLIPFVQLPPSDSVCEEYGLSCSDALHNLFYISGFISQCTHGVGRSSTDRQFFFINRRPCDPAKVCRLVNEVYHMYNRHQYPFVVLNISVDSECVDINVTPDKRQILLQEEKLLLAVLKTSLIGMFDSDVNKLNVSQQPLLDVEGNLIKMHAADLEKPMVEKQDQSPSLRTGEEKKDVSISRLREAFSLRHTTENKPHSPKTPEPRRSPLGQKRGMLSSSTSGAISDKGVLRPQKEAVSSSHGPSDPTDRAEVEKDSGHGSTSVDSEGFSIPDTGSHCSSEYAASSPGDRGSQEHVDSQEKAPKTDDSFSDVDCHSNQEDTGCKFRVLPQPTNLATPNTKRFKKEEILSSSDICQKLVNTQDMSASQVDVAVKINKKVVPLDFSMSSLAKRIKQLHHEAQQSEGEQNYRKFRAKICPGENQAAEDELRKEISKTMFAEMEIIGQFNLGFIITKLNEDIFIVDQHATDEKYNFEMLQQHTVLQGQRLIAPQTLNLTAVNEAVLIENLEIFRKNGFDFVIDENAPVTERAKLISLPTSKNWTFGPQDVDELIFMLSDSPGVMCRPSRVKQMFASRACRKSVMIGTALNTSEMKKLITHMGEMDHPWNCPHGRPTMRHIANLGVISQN

One may read the Kd as the constant that tells how readily two partners part at equilibrium. For the substance MutSβ (from UniProt P43246), the Kd was 250 nM.
